# Test results published in patent US9371374 (AbbVie / Abbott, dated 2016).
# T1: HCV Core1-169 (HCV-1, UniProt P26664 1-169)
# T1 construct: also called Solid Phase HCV Core
# T1 sequence: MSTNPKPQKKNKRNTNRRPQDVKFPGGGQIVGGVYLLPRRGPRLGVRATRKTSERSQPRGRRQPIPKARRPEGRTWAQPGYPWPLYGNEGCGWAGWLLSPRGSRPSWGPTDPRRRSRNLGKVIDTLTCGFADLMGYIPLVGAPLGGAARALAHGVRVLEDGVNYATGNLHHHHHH
# B1: HCV 208A-422 (antibody, V domains shown)
# VH: DVQLQESGPGLVNPSQSLSLTCSVTGYSITSGYYWIWIQQSPGNKLEWMGYIKYDGGNNYSPSLKNRISIARDTSKNQCFLKLNSVTIEDTATYYCTRGSDSFDYWGQGTTLTVSS
# VL: DIVLTQSPASLAVSLGQRAIISCKASQSVSFAGTNLMHWYQQKPGQQPKLLIYRASNLETGVPTRFSGSGSRTDFTLNIHPVEEDDAATYYCQQSREYYTFGGGTKLEIKR
# B2: HCV 208B-395 (antibody, V domains shown)
# VH: QVQLQQSGAGLAKPGASVKMSCKASGYTFTANKMHWTKQRPGQGLEWIGYIDPSSGYTQYNHKIQDKATLTADTSSSTAYMQLSSLTFEDSAVYYCTNFAYWGQGTLVTVSA
# VL: DIVLTQSPATLSVTPGDRVSLSCRASQRIYNYLHWYQQKSHESPRLLIKYASQSISGIPSRFSGSGSGTDFILTINSVETEDFGMYFCQQSNSWPLTFGAGTKLELRR
# B3: HCV 208B-862 (antibody, V domains shown)
# VH: DVQLQESGPGLVKPSQSLSLTCTVTGYSITSDYAWNWIRQFPGNKLEWMGYISYSGTTVYSPSLKSRISITRDTSKNQFFLQLNSVTIEDSATYYCGGNYWGQGTLVTVSA
# VL: DVVLTQTPLSLPLSLGDQASISCRSSQTLLHSDGDTYLHWYLQKPGQSPKLLIYKLSNRFSGVPDRFSGSGSGTDFTLKISRVEAEDLGVYFCSQSTHVPYTFGGGTKLEIKR
# Columns and labels:
# HCV Core1-169 [1] = molecular target: T1, HCV Core1-169; test: EIA, coated core1-169
# HCV Core1-169 [2] = molecular target: T1, HCV Core1-169; test: EIA, core captured by anti-domain 1 mAb
# HCV Core1-169 [3] = molecular target: T1, HCV Core1-169; test: sandwich EIA, capture 208B-395-334
# HCV Core1-169 [4] = molecular target: T1, HCV Core1-169; test: sandwich EIA, NC capture mAb; note: test concentration or dose not given here
# HCV Core1-169 [5] = molecular target: T1, HCV Core1-169; test: sandwich EIA, capture 208B-741
# HCV Core1-169 [6] = molecular target: T1, HCV Core1-169; test: sandwich EIA, capture 208A-207-271
# HCV Core1-169 [7] = molecular target: T1, HCV Core1-169; test: sandwich EIA, capture 208A-692
# [8] = molecular target: HCV Core 134-171-TT peptide (ALRZ-9 peptide) (HCV-1); test: SPR, captured mAb;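 note: Anti-HCV Core mAbs from hybridoma supernatants held on a rabbit anti-mouse IgG CM5 surface, peptide flowed over 3 min then 4 min dissociation, duplicate concentrations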
# HCV Core1-169 [9] = molecular target: T1, HCV Core1-169; test: sandwich EIA, capture 208A-293
# HCV Core1-169 [10] = molecular target: T1, HCV Core1-169; test: sandwich EIA, capture 208B-1096
# HCV Core1-169 [11] = molecular target: T1, HCV Core1-169; test: sandwich EIA, capture 208A-557
# HCV Core1-169 [12] = molecular target: T1, HCV Core1-169; test: sandwich EIA, capture C11-7
# HCV Core1-169 [13] = molecular target: T1, HCV Core1-169; test: sandwich EIA, capture 208A-110
# HCV Core1-169 [14] = molecular target: T1, HCV Core1-169; test: sandwich EIA, capture 208B-612-226
# HCV Core1-169 [15] = molecular target: T1, HCV Core1-169; test: sandwich EIA, capture C11-9
# HCV Core1-169 [16] = molecular target: T1, HCV Core1-169; test: SPR sandwich, C11-14 capture
# [17] = molecular target: HCV Core 134-171-TT peptide (ALRZ-9 peptide) (HCV-1); test: SPR, captured mAb; remark: listed apart in the source;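 note: Anti-HCV Core mAbs from hybridoma supernatants held on a rabbit anti-mouse IgG CM5 surface, peptide flowed over 3 min then 4 min dissociation, duplicate concentrations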
# HCV Core1-169 [18] = molecular target: T1, HCV Core1-169; test: SPR sandwich, C11-9 capture
# HCV Core1-169 [19] = molecular target: T1, HCV Core1-169; test: SPR sandwich, C11-7 capture
# HCV Core1-169 [20] = molecular target: T1, HCV Core1-169; test: SPR sandwich, C11-3 capture
binder,measurement,setting,value
B1,OD (A492),HCV Core1-169 [1],1.68 OD
same,OD (A492),HCV Core1-169 [2],0.18 OD
B2,OD492,HCV Core1-169 [3],0.23 OD
same,OD492,HCV Core1-169 [4],0.2 OD
same,OD492,HCV Core1-169 [5],0.21 OD
same,OD492,HCV Core1-169 [6],0.2 OD
same,OD492,HCV Core1-169 [7],0.15 OD
same,Kd,[8],0.36 nM
same,koff,[8],0.00047 s⁻¹
same,kon,[8],1.3e+06 M⁻¹ s⁻¹
same,OD492,HCV Core1-169 [9],0.26 OD
same,OD492,HCV Core1-169 [10],0.23 OD
same,OD492,HCV Core1-169 [11],0.21 OD
same,OD492,HCV Core1-169 [12],0.89 OD
same,OD492,HCV Core1-169 [13],0.21 OD
same,OD492,HCV Core1-169 [14],0.26 OD
same,OD492,HCV Core1-169 [15],0.32 OD
B3,expected % binding,HCV Core1-169 [16],12.6%
same,Kd,[17],0.07 nM
same,koff,[17],0.0001 s⁻¹
same,kon,[17],1.4e+06 M⁻¹ s⁻¹
same,expected % binding,HCV Core1-169 [18],8.9%
same,expected % binding,HCV Core1-169 [19],15.2%
same,OD (A492),HCV Core1-169 [1],0.49 OD
same,OD (A492),HCV Core1-169 [2],1.07 OD
same,expected % binding,HCV Core1-169 [20],11.2%
